From article PMC10729762, “CsrA selectively modulates sRNA-mRNA regulator outcomes”

Tests used:
[1] = target: T1, CsrA (UniProt P69913 1-61); assay: EMSA; 3 or 6 uM CsrA; 10 nM denatured RNA, 0-6 uM CsrA, 0-3 uM Hfq; 1X binding buffer (10 mM Tris-HCl pH 7.5, 10 mM MgCl2, 100 mM KCl) plus CsrA dilution buffer, 11% glycerol, 20 mM; conditions: protein: recombinant, chain copies: 2
[2] = target: T1, CsrA; assay: EMSA; 6 uM CsrA; 10 nM denatured RNA, 0-6 uM CsrA, 0-3 uM Hfq; 1X binding buffer (10 mM Tris-HCl pH 7.5, 10 mM MgCl2, 100 mM KCl) plus CsrA dilution buffer, 11% glycerol, 20 mM; conditions: protein: recombinant; chain copies: 2; label: internal 32P-UTP
[3] = target: T1, CsrA; assay: EMSA; up to 6 uM CsrA; 10 nM denatured RNA, 0-6 uM CsrA, 0-3 uM Hfq; 1X binding buffer (10 mM Tris-HCl pH 7.5, 10 mM MgCl2, 100 mM KCl) plus CsrA dilution buffer, 11% glycerol, 20 mM; conditions: protein: recombinant; chain copies: 2; label: internal 32P-UTP

T1 sequence (P69913 whole entry): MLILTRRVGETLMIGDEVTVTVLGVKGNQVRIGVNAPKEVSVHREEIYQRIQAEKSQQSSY

B1: SgrS (structured_RNA)
RNA: GAUGAAGCAAGGGGGUGCCCCAUGCGUCAGUUUUAUCAGCACUAUUUUACCGCGACAGCGAAGUUGUGCUGGUUGCGUUGGUUAAGCGUCCCACAACGAUUAACCAUGCUUGAAGGACUGAUGCAGUGGGAUGACCGCAAUUCUGAAAGUUGACUUGCCUGCAUCAUGUGUGACUGAGUAUUGGUGUAAAAUCACCCGCCAGCAGAUUAUACCUGCUGGUUUUUUUU
[1]; label: internal 32P-UTP
  binding result: binds

B2: McaS (structured_RNA)
RNA: ACCGGCGCAGAGGAGACAAUGCCGGAUUUAAGACGCGGAUGCACUGCUGUGUGUACUGUAGAGUCUGGCGGAUGUCGACAGACUCUAUUUUUU
[1]; label: internal 32P-UTP
  binding result: binds

B3: SibA (structured_RNA)
RNA: GUGAGGGUUAGGGAGAGGUUUCCCCCUCCCCCUGGUGUUCUUAGUAAGCCUGGAAGCUAAUCACUAAGAGUAUCACCAGUAUGAUGACGUGCUUCAUCAUAACCCUUUCCUUAUUAAAAGCCCUCUUCUCCGGGAGAGGCUUU
[1]; label: internal 32P-UTP
  binding result: binds

B4: MicL-S (structured_RNA)
RNA: AUUUUUACCGUUGCAUCAUGUCGCCCAAUAUGAUGCUUGCUCGUACCAGGCCCCUGCAAUUUCAACAGGGGCCUUUUUUU
[2]
  binding result: binds

B5: GlmZ (structured_RNA)
RNA: GUAGAUGCUCAUUCCAUCUCUUAUGUUCGCCUUAGUGCCUCAUAAACUCCGGAAUGACGCAGAGCCGUUUACGGUGCUUAUCGUCCACUGACAGAUGUCGCUUAUGCCUCAUCAGACACCAUGGACACAACGUUGAGUGAAGCACCCACUUGUUGUCAUACAGACCUGUUUUAACGCCUGCUCCGUAAUAAGAGCAGGCGUUUUUUU
[2]
  binding result: binds

B6: SibD (structured_RNA)
RNA: ACAAGGGUGAGGGAGGAUUUCUCCCCCCUCUGAUUGGCUGUUAAUAAGCUGCGAAACUUACGAGUAACAACACAAUCAGUAUGAUGACGAGCUUCAUCAUAACCCUUUCCUUCUGUAAGGCCCCCUUCUUCGGGAGGGGCUUU
[2]
  binding result: binds

B7: GcvB (structured_RNA)
RNA: ACUUCCUGAGCCGGAACGAAAAGUUUUAUCGGAAUGCGUGUUCUGGUGAACUUUUGGCUUACGGUUGUGAUGUUGUGUUGUUGUGUUUGCAAUUGGUCUGCGAUUCAGACCAUGGUAGCAAAGCUACCUUUUUUCACUUCCUGUACAUUUACCCUGUCUGUCCAUAGUGAUUAAUGUAGCACCGCCUAAUUGCGGUGCUUUUUUUU
[3]
  binding result: no binding

B8: SibC (structured_RNA)
RNA: GUAAGGGUAAGGGAGGAUUGCUCCUCCCCUGAGACUGACUGUUAAUAAGCGCUGAAACUUAUGAGUAACAGUACAAUCAGUAUGAUGACAAGUCGCAUCAUAACCCUUCUCCUUCAAGCCCUCGCUUCGGUGAGGGCUUU
[3]
  binding result: no binding

B9: ChiX (structured_RNA)
RNA: ACACCGUCGCUUAAAGUGACGGCAUAAUAAUAAAAAAAUGAAAUUCCUCUUUGACGGGCCAAUAGCGAUAUUGGCCAUUUUUUU
[1]; label: internal 32P-UTP
  binding result: binds

B10: DsrA (structured_RNA)
RNA: AACACAUCAGAUUUCCUGGUGUAACGAAUUUUUUAAGUGCUUCUUGCUUAAGCAAGUUUCAUCCCGACCCCCUCAGGGUCGGGAUUU
[1]; label: internal 32P-UTP
  binding result: binds

B11: Spot 42 (spf) (structured_RNA)
RNA: GUAGGGUACAGAGGUAAGAUGUUCUAUCUUUCAGACCUUUUACUUCACGUAAUCGGAUUUGGCUGAAUAUUUUAGCCGCCCCAGUCAGUAAUGACUGGGGCGUUUUUUA
[1]; label: internal 32P-UTP (EMSA)
  binding result: binds

B12: GadY (structured_RNA)
RNA: ACUGAGAGCACAAAGUUUCCCGUGCCAACAGGGAGUGUUAUAACGGUUUAUUAGUCUGGAGACGGCAGACUAUCCUCUUCCCGGUCCCCUAUGCCGGGUUUUUUU
[1]; label: internal 32P-UTP
  binding result: binds
